# B1: Candidate 6: Full length SRF-UCOE, SEQ ID NO:1; region between human SURF1 and SURF2 including first introns, chr9 (nucleic acid, listed as Homo sapiens)
# DNA: GCACACGACCACAATTCCACTGAAAGCATTTTAATACGGAACTTGTCACTCCCAGGGAGCCTCCGCTCAGCCGGCAGTTGGTTCATTTCAATCCCCACGACAACCCTTCAAAGTGCAGGGCAGACAGCAGGTGGCTCTGCCCAGGCGCCTGGATCACAGCCCGGCCTGCAGCCCTCACCTGGGCGCGGGGAGACCCTGAGGACGCTCCTCCAGGCGGCGCTGGCCGGGGCCTGCGGACACGGACGGGCGGGCTGAGCTCCGGGACCCCTCCCCGCGCCCCGCACCCCGCACCCCGCACCCCGCACCCCGCACCCGGCGCTCACCCGTCCCAGCCCCGCCGCCCGCAGCCCCAGCTGCAACGCAGCCACCGCCGCCATCGCACCCGGCCCCGCGGGCGCTTCCGGGACGCAGGAGGCATCTGCATCCGGGGCGCCGCTGAGTCCCGCCCAGAGCCCCGCCCCCGGCTCCAGGTTCTGCGAGCGGCTTCCGCCGGGCTGCTCCGCGGGCGCGTCGGCCATGAGCGAGTTGCCGGGCGACGTGCGGGCGTTTCTGCGGGAGCACCCGAGCCTGCGGCTCCAGACGGACGCCCGCAAGGTTCGCAGCGCGGGAGGGGAACGGAGTGGCGGAGAAGGGCGCAGTTGGGATGAGGGGCTGAGGGGAGGGCAGGGGAGAGGAGAGGGCAGGGGAGAGGGGAGAGGGGAGAGCAGGAGAGAGGGGAAGGCAGGGGAGAGGGCGCGGCGGGATCAGGGGAGGAGAGGGAAGGGGGCGCGGCAGGAGGGGGCACCAGGGAGCGGAGCCCTGGCCCTCCTGACGTCCTGCCCGCCCACGCGTCCGCAGGTGAGGTGCATCCTGACAGGTCACGAGCTGCCCTGCCGCCTGCCGGAGCTCCAGGTCTACACCCGCGGCAAAAAGTACCAGCGGCTGGTCCGCGCCTCCCCGGCCTTCGACTATGCAGAGTTCGAGCCGCACATCGTGCCCAGCACCAAGAACCCGTAGGTGGTC
# Tested on: P19 cells
# Assay: Lentiviral transduction silencing experiment, UCOE linked to CMV, EF1α, RSV or PGK promoter driving GFP
# Format: cell-based, mouse
# Description: The graphs show the raw data of measured percent GFP positive cells (% GFP+) for each construct over time. Transduced populations were sorted into triplicate wells using FACS at day 0 (5 days after lentiviral transductions) to begin the study at 100% GFP positive cells. Expression is lost quickly within the first 10 days, and then stabilizes around day 15. Data is reported as mean±SD from biological triplicates. Two positive UCOE controls (A2UCOE, 3′UCOE) and a negative control (no insulator region) were used.
# Percent GFP positive cells at the final timepoint (day 26 for CMV and RSV, day 27 for PGK and EF1α) of the lentivirus silencing experiment across the four tested promoters is plotted. P19 cells were FACS-sorted five days after transduction (day 0) and then assayed over a 26 or 27-day time period thereafter. Data is reported as mean±SD from three biological replicates.
# Two plasmids (pCS3800: encoding HIV-1 Gag; pCS380: encoding VSVg envelope protein) were used with varying versions of the donor plasmid pCS3799. HEK293T cells were plated at 5×10^6 cells in a 10 cm dish. Twenty-four hours after plating, the three plasmids (10 μg donor, 8 μg pCS3800, 10 μg pCS3801) were co-transfected together using a calcium phosphate protocol (Zufferey, R. T. and Trono, D. (2001) Current Protocols in Human Genetics, 26 (1), 12.10.1-12.10.12; DOI: 10.1002/0471142905.hg1210s26 (55)). The total DNA was brought to 500 μL in water, to which 500 μL of 2×HEPES-buffered saline, pH7.0 (Alfa Aesar) was added and mixed. One-tenth of the total volume (100 μL) of 2.5 M calcium chloride (Sigma-Aldrich) was then added to the mixture, followed by a 20-minute incubation. The mixture was then added to the plate in a dropwise manner. Media was replaced six hours later, and the supernatant was collected at 48 hr after the transfection, filtered through 0.4 μm filter, and frozen at −80° C. in 1 mL aliquots. Lentiviral aliquots were thawed in a 37° C. bead bath before transductions.
# P19 cells were plated at 20-30,000 cells/well in 12-well plates one day before transduction. Twenty-four hours after plating, cells were transduced at varying dilutions of the lentiviral stock (ranging from 1:2 to 1:100) in DMEM+10% FBS with 8 μg/mL polybrene (Santa Cruz Biotechnologies). Media was refreshed on P19 cells 24 hours after transduction, and cells were passaged and assayed through a MACSQuant® VYB flow cytometer (Miltenyi Biotec) 48 h after transduction. MOI was determined by reporter expression at this timepoint using the following formula: MOI=ln (1/1-p) where p is the % of cells that are GFP positive at 48 hours post-transduction (Chen, S. et al. (2015) Cell, 160, 1246-1260 (56)).
# Cells were FACS-sorted on the BD Influx™ cell sorter at the Stanford FACS Facility using the 488-nm laser and 525/40 filter to assay GFP expression. After gating for singlets and viability, GFP+ gate was drawn to be <0.1% GFP positive in non-transduced P19 cells. GFP+ gates were re-drawn for each promoter set to avoid the ˜10% highest and lowest expressing cells within the GFP+ gate, but the same gate was used for every experimental condition under the same promoter. Triplicate wells of each population (12-15,000 cells/well in a 24-well plate) were collected.
# Fluorescence data throughout silencing experiments was obtained using a MACSQuant® VYB flow cytometer (Miltenyi Biotec). EGFP was measured through the 488-nm laser and 525/50 nm band pass filter. Flow cytometry data was analyzed using the FlowJo™ single cell flow cytometry analysis software (Tree Star). After being gated for singlets and viability, GFP+ gates in FlowJo were drawn such that a non-transfected or non-transduced P19 cell population was at 1% GFP+. Median values reported are of cells within the GFP+ gate, both % GFP positive and median are reported with the standard deviation of biological replicates. […]
molecule,measurement,setting,value
B1,GFP positive cells / expression compared to the negative control,"Ef1α promoter, final timepoint",2.7 times
same,% GFP+ cells at final timepoint,"PGK promoter, day 27",29%
same,expressing cells / improvement over the negative control,"PGK promoter, day 27",5 fold
same,% GFP+ cells at final timepoint,"RSV promoter, day 26",76%
same,"% GFP+ cells, representative example (one biological replicate)","RSV promoter, day 26",79.6%
